The test deals with T1, Human MutSα (MSH2-MSH6 heterodimer) (human, UniProt P43246 1-934; P52701 1-1360).
T1 construct: MSH2, human, subunit of MutSα; MSH6, human, subunit of MutSα
The test can be described thus: co-IP; purified proteins; MutSα- or MutLα-containing agarose beads (antibodies against MSH2 or MLH1), DNA2 in solution; for MutSα 30-μl mixtures with MutSα (3.4 pmol) and DNA2 (3.4 pmol); eluted fractions analyzed by immunoblotting. Particulars: both partners purified. Background: Immunoblotting shows a protein as a band on a membrane.

T1 sequence (P43246 whole entry, chain 1 of 2): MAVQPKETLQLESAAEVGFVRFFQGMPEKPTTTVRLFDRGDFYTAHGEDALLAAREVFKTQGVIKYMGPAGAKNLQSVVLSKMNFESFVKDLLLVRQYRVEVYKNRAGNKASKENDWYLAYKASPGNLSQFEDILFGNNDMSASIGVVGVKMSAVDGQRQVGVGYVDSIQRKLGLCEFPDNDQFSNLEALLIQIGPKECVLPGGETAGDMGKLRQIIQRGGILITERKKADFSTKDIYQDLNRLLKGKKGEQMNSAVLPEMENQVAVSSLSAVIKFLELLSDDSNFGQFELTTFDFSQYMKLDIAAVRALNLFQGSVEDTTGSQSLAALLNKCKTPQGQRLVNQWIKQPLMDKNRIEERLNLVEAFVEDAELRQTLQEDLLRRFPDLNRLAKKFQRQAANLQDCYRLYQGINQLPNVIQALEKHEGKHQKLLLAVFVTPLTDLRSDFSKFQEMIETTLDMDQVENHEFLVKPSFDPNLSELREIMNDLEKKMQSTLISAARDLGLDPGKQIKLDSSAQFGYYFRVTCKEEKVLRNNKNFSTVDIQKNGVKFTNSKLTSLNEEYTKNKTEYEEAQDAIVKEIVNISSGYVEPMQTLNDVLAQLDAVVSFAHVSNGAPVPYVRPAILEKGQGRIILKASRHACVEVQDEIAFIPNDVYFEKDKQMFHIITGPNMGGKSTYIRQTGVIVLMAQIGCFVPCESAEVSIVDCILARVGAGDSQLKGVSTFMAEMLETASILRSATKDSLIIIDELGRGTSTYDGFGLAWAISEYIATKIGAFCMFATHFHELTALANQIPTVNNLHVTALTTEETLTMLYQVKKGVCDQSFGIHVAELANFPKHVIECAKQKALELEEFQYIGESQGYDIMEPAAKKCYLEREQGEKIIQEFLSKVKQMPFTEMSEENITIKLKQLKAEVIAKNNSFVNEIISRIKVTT
T1 sequence (P52701 whole entry, chain 2 of 2): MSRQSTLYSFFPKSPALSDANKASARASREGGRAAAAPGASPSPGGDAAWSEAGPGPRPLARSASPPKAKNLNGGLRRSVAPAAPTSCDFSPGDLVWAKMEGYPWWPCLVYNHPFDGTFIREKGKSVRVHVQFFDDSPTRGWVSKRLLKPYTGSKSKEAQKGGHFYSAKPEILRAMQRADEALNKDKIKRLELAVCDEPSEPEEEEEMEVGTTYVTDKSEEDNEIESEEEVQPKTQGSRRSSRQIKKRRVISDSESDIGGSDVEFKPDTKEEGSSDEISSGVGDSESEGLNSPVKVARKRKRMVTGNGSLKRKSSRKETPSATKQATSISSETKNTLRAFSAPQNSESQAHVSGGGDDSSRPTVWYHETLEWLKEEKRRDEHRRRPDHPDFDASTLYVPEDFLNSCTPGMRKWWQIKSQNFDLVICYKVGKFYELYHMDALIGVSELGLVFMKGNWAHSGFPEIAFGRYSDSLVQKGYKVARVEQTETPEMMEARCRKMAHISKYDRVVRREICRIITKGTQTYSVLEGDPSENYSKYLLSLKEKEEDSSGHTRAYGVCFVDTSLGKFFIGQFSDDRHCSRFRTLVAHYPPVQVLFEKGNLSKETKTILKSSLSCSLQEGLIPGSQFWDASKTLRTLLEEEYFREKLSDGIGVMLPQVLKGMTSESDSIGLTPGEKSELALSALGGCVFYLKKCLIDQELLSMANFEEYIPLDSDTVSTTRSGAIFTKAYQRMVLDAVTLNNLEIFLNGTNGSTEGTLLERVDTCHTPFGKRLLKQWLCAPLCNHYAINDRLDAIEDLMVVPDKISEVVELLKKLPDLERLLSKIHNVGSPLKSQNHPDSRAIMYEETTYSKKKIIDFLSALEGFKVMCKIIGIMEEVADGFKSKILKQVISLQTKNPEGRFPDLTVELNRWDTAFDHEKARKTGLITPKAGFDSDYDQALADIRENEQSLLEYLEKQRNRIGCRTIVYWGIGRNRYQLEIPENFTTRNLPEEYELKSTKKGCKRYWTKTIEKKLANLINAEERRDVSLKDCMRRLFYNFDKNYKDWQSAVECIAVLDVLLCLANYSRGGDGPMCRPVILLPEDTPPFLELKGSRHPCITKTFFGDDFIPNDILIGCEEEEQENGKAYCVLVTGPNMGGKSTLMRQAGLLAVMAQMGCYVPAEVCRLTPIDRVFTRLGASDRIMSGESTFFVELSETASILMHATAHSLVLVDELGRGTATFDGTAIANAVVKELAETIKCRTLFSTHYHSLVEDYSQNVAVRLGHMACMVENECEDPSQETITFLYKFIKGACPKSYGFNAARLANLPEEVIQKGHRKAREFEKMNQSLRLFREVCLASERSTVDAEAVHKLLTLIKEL

B1: Human DNA2 nuclease/helicase (enzyme, UniProt P51530 1-1060, looked up)
chain: MEQLNELELLMEKSFWEEAELPAELFQKKVVASFPRTVLSTGMDNRYLVLAVNTVQNKEGNCEKRLVITASQSLENKELCILRNDWCSVPVEPGDIIHLEGDCTSDTWIIDKDFGYLILYPDMLISGTSIASSIRCMRRAVLSETFRSSDPATRQMLIGTVLHEVFQKAINNSFAPEKLQELAFQTIQEIRHLKEMYRLNLSQDEIKQEVEDYLPSFCKWAGDFMHKNTSTDFPQMQLSLPSDNSKDNSTCNIEVVKPMDIEESIWSPRFGLKGKIDVTVGVKIHRGYKTKYKIMPLELKTGKESNSIEHRSQVVLYTLLSQERRADPEAGLLLYLKTGQMYPVPANHLDKRELLKLRNQMAFSLFHRISKSATRQKTQLASLPQIIEEEKTCKYCSQIGNCALYSRAVEQQMDCSSVPIVMLPKIEEETQHLKQTHLEYFSLWCLMLTLESQSKDNKKNHQNIWLMPASEMEKSGSCIGNLIRMEHVKIVCDGQYLHNFQCKHGAIPVTNLMAGDRVIVSGEERSLFALSRGYVKEINMTTVTCLLDRNLSVLPESTLFRLDQEEKNCDIDTPLGNLSKLMENTFVSKKLRDLIIDFREPQFISYLSSVLPHDAKDTVACILKGLNKPQRQAMKKVLLSKDYTLIVGMPGTGKTTTICTLVRILYACGFSVLLTSYTHSAVDNILLKLAKFKIGFLRLGQIQKVHPAIQQFTEQEICRSKSIKSLALLEELYNSQLIVATTCMGINHPIFSRKIFDFCIVDEASQISQPICLGPLFFSRRFVLVGDHQQLPPLVLNREARALGMSESLFKRLEQNKSAVVQLTVQYRMNSKIMSLSNKLTYEGKLECGSDKVANAVINLRHFKDVKLELEFYADYSDNPWLMGVFEPNNPVCFLNTDKVPAPEQVEKGGVSNVTEAKLIVFLTSIFVKAGCSPSDIGIIAPYRQQLKIINDLLARSIGMVEVNTVDKYQGRDKSIVLVSFVRSNKDGTVGELLKDWRRLNVAITRAKHKLILLGCVPSLNCYPPLEKLLNHLNSEKLIIDLPSREHESLCHILGDFQRE
notes: DNA2 nuclease/helicase, human; wild type; source: insect Sf9 cells (baculovirus, codon-optimized gene), purified (α-Flag M2 beads, MonoS column)
On to B1, for which the binding result was “binds”.

The values are drawn from paper PMC9036127, “The nuclease activity of DNA2 promotes exonuclease 1–independent mismatch repair” (The Journal of Biological Chemistry, 2022).
